Assay results as given in patent US20220177587A1, “METHODS AND USES OF VARIANT CD80 FUSION PROTEINS AND RELATED CONSTRUCTS” (Alpine Immune Sciences, Inc., priority 2018, published 2022).
pEC50: −log10 of the molar value. Where no end group is shown, it is not given here.

How the values were obtained:
[1] = target: T1, CD28 (Homo sapiens, UniProt P10747); assay: Jurkat/IL2 + K562/OKT3 (no PD-L1) reporter assay of CD80 ECD-Fc (effector); type: cell-based; set-up: host or cells: Jurkat cells expressing an IL-2-luciferase reporter; conditions: aAPC without PD-L1
Method: The bioactivity of the generated molecules also was assessed using a Jurkat report assay as described in Examples 9 to assess CD28 costimulation of the molecules.

[2] = target: huCTLA4 (Homo sapiens, UniProt P16410); assay: Flow binding to CHO cells stably expressing CTLA4; set-up: huCTLA4 and huPD-L1, full-length mammalian surface expression constructs were generated; expressed in transfected cells; host or cells: CHO cells, lentiviral transduction, sorted to >98% purity; conditions: for CTLA4 MFI at 33.3 nM: CHO cells stably expressing CTLA4
Method: (§1) Binding of selected immunomodulatory fusion proteins to cognate binding partners was assessed. […] Cells were sorted in a Bio-Rad S3 Cell Sorter (Bio-Rad Corp., USA) to >98% purity. Jurkat/IL2 reporter cells, which endogenously express CD28, were used to detect binding to CD28.
(§2) For staining and analysis by flow cytometry, 100,000 cells of appropriate transfected cells were plated in 96-well round bottom plates. Cells were spun down and resuspended in staining buffer (phosphate buffered saline (PBS), 1% bovine serum albumin (BSA), and 0.1% sodium azide) for 20 minutes to block non-specific binding. […] Primary staining was performed on ice for 45 minutes, before washing cells in staining buffer twice. Phycoerythrin (PE)-conjugated anti-human Fc (Jackson ImmunoResearch, USA) was diluted 1:150, added to cells and incubated another 30 minutes on ice. Cells were then washed twice with 150 μL/well stain buffer, fixed in 2% formaldehyde/PBS, and analyzed on Intellicyt flow cytometer (Intellicyt Corp., USA). PE Mean Fluorescence Intensity (MFI) was calculated for each cell type with FlowJo Version 10 software (FlowJo LLC, USA).
(§3) Binding assays were carried out to assess the specificity and affinity of multivalent proteins to cell-expressed CTLA-4, CD28, and PD-L1 counter structures.
(§4) The EC50 for binding also was determined.

[3] = target: huPD-L1 (Homo sapiens, UniProt Q9NZQ7); assay: Flow binding to CHO cells stably expressing PD-L1; set-up: huCTLA4 and huPD-L1, full-length mammalian surface expression constructs were generated; expressed in transfected cells; host or cells: CHO cells, lentiviral transduction, sorted to >98% purity; conditions: for PD-L1 MFI at 33.3 nM: CHO cells stably expressing PD-L1; for PD-L1 Fold change to WT CD80: MFI at 33.3 nM relative to CD80 WT IgV-Fc
Method: as §1, §2, §3, §4

[4] = test system: Pan T cells; assay: Primary T cell stimulation assay with K562/OKT3 +/- PD-L1 (IL-2, IFN-gamma, proliferation); type: cell-based, human; set-up: IL-2 release, K562/OKT3 (No PD-L1), CD80-IgV Fc (effector), 1 nM / IL-2 release, K562/OKT3 (No PD-L1), CD80-IgV Fc (effector), 10 nM / IL-2 release, K562/OKT3 (No PD-L1), CD80-IgV Fc (effector), 100 nM / IL-2 release, K562/OKT3/PD-L1, CD80-IgV Fc (inert), 1 nM / IL-2 release, K562/OKT3/PD-L1, CD80-IgV Fc (inert), 10 nM / IL-2 release, K562/OKT3/PD-L1, CD80-IgV Fc (inert), 100 nM: unit not given here; conditions: 72 hr; for IL-2 release, K562/OKT3 (No PD-L1), CD80-IgV Fc (effector), 1 nM / IL-2 release, K562/OKT3 (No PD-L1), CD80-IgV Fc (effector), 10 nM / IL-2 release, K562/OKT3 (No PD-L1), CD80-IgV Fc (effector), 100 nM: Pan T cells + K562/OKT3 (no PD-L1), effector Fc format (controls as labelled); for IL-2 release, K562/OKT3/PD-L1, CD80-IgV Fc (inert), 1 nM / IL-2 release, K562/OKT3/PD-L1, CD80-IgV Fc (inert), 10 nM / IL-2 release, K562/OKT3/PD-L1, CD80-IgV Fc (inert), 100 nM: Pan T cells + K562/OKT3/PD-L1, inert Fc format (controls as labelled)
Method: IFN-gamma, IL-2 and proliferation were determined after 72 hr. incubation.

[5] = target: T1, CD28; assay: Flow binding to Jurkat/IL2 reporter cells (CD28); set-up: host or cells: Jurkat cells expressing an IL-2-luciferase reporter; conditions: for CD28 MFI at 33.3 nM: Jurkats (CD28); for CD28 Fold change to WT CD80: MFI at 33.3 nM relative to CD80 WT IgV-Fc
Method: as §1, §2, §3, §4

[6] = target: T1, CD28; assay: Jurkat/IL2 + CHO/OKT3 +/- PD-L1 reporter assay: PD-L1-dependent CD28 costimulation; type: cell-based; set-up: host or cells: Jurkat cells expressing an IL-2-luciferase reporter
Method: Jurkat cells were then plated at 50 μL/well for a total of 100,000 cells per well.
To each well, 25 μL of test protein was added to the Jurkat cells. […] The Jurkat cells with test or control proteins were incubated for 15 minutes at room temperature. CHO-derived artificial antigen presenting cells (aAPC) displaying transduced cell surface anti-CD3 single chain Fv (OKT3) (i.e., no PD-L1), or OKT3 and PD-L1 (i.e., +PD-L1), were brought to 0.8×10^6 cells/mL, and 25 μL of cells were added to each well, bringing the final volume of each well to 100 μL. […] Jurkat cells and CHO cells were incubated for 5 hours at 37 degrees Celsius in a humidified 5% CO2 incubation chamber. Plates were then removed from the incubator and acclimated to room temperature for 15 minutes. 100 μL of a cell lysis and luciferase substrate solution (BioGlo luciferase reagent, Promega) were added to each well and the plates were incubated on an orbital shaker for 10 minutes. Luminescence was measured with a 1 second per well integration time using a BioTek Cytation luminometer, and a relative luminescence value (RLU) was determined for each test sample.

[7] = Table E22, Jurkat/IL2 + CHO/OKT3/PD-L1, 5.0 nM
[8] = Table E22, Jurkat/IL2 + CHO/OKT3/PD-L1
[9] = Table E20, MFI at 33.3 nM relative to CD80 WT IgV-Fc
[10] = Table E20, ratio of MFI at 33.3 nM
[11] = Table E14, 33.3 nM, listed as CD80 WT IgV-Fc = 1.0
[12] = Table E15, CHO/OKT3/PD-L1, 5.0 nM

Sequence of huCTLA4 (P16410 36-223): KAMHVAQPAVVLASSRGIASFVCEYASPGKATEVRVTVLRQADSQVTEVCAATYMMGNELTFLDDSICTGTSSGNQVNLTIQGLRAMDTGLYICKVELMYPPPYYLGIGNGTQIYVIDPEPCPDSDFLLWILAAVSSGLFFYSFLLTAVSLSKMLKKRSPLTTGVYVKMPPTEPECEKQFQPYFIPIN
Sequence of huPD-L1 (Q9NZQ7 19-290): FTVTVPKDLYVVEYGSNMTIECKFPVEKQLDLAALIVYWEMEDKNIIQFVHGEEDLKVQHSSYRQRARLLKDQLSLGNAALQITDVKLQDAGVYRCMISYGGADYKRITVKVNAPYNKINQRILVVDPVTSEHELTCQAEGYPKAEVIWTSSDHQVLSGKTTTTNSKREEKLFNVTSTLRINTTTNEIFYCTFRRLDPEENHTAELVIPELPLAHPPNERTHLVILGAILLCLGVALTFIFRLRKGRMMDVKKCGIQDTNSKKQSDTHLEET

| Substance | CD28 MFI at 33.3 nM ([5]; Table E20, 33.3 nM) | CD28 Fold change to WT CD80 ([5]; Table E20) | Fold Increase over WT CD80-IgV-Fe [6, 7] | Relative Luciferase Units (RLU), CD80 Conc 5.0 nM [6, 8] | CTLA4 MFI at 33.3 nM ([2]; Table E20, 33.3 nM) | CTLA4 Fold change to WT CD80 [2, 9] | PD-L1 MFI at 33.3 nM ([3]; Table E20, 33.3 nM) | PD-L1 Fold change to WT CD80 ([3]; Table E20) | Ratio of PDL1:CD28 [3, 10] | IL-2 release, K562/OKT3 (No PD-L1), CD80-IgV Fc (effector), 1 nM [4] | IL-2 release, K562/OKT3 (No PD-L1), CD80-IgV Fc (effector), 10 nM [4] | IL-2 release, K562/OKT3 (No PD-L1), CD80-IgV Fc (effector), 100 nM [4] | further results |
| --- | --- | --- | --- | --- | --- | --- | --- | --- | --- | --- | --- | --- | --- |
| CD80 (E35D/D46E/M47V/V68M/D90G/K93E) ECD-Fc: variant full CD80 ECD fused to effector human IgG1 Fc (SEQ ID NO:1527) |  |  |  |  |  |  |  |  |  |  |  |  | Relative Luminescence at 98 pM [1]: 949 RLU; Relative Luminescence at 391 pM [1]: 939 RLU; Relative Luminescence at 1563 pM [1]: 1022 RLU; Relative Luminescence at 6250 pM [1]: 1213 RLU; Relative Luminescence at 25000 pM [1]: 1558 RLU; Relative Luminescence at 100000 pM [1]: 2046 RLU; CHO/CTLA4 MFI at 66.7 nM ([2]; 66.7 nM): 24566; pEC50 ([2]; flow binding): 7.98; CHO/PD-L1 MFI at 66.7 nM [3]: 287 |
| WT CD80 IgV-Fc (effector) |  |  |  |  |  |  |  |  |  | 7167 | 7123 | 6203 |  |
| WT CD80 ECD-Fc (effector) |  |  |  |  |  |  |  |  |  | 11434 | 20185 | 23118 | IL-2 release, K562/OKT3/PD-L1, CD80-IgV Fc (inert), 1 nM [4]: 507; IL-2 release, K562/OKT3/PD-L1, CD80-IgV Fc (inert), 10 nM [4]: 3114; IL-2 release, K562/OKT3/PD-L1, CD80-IgV Fc (inert), 100 nM [4]: 8393 |
| CD80 (S21P/L70Q/D90G/I118V/T120S/T130A) ECD-Fc: variant full CD80 ECD fused to effector human IgG1 Fc (SEQ ID NO:1527) |  |  |  |  |  |  |  |  |  |  |  |  | Jurkat/CD28 MFI at 66.7 nM ([5]; 66.7 nM): 282; pEC50 ([5]; flow binding, read-out: Jurkat/CD28 EC50): < 6.70; Relative Luminescence at 98 pM [1]: 1042 RLU; Relative Luminescence at 391 pM [1]: 993 RLU; Relative Luminescence at 1563 pM [1]: 1049 RLU; Relative Luminescence at 6250 pM [1]: 1203 RLU; Relative Luminescence at 25000 pM [1]: 1730 RLU; Relative Luminescence at 100000 pM [1]: 2197 RLU; CHO/PD-L1 MFI at 66.7 nM [3]: 103 |
| deltaE10-A98: variant CD80 IgV-Fc, IgV SEQ ID NO:545 (VIHVTKEVKEVTLSVKAD; not fully specified) |  |  |  |  |  |  |  |  |  |  |  |  | CD28 Fold change to WT [5, 11]: 0.4; CD28 MFI at 33.3 nM ([5]; Table E14, 33.3 nM): 15; Fold Increase over WT CD80-IgV-Fe [6, 12]: 0.3; Relative Luciferase Units (RLU), CD80-Fe Cone 5.0 nM [6, 12]: 137 RLU; CTLA4 Fold change to WT CD80 [2, 11]: 0.1; CTLA4 MFI at 33.3 nM ([2]; Table E14, 33.3 nM): 125; PD-L1 Fold change to WT [3, 11]: 0.5; PD-L1 MFI at 33.3 nM ([3]; Table E14, 33.3 nM): 45; Ratio of PDL1:CD28 ([3]; Table E14, MFI at 33.3 nM): 3 |
| Inert Fc Control |  |  |  |  |  |  |  |  |  | 7040 | 6335 | 5512 | IL-2 release, K562/OKT3/PD-L1, CD80-IgV Fc (inert), 1 nM [4]: <LOD; IL-2 release, K562/OKT3/PD-L1, CD80-IgV Fc (inert), 10 nM [4]: 143; IL-2 release, K562/OKT3/PD-L1, CD80-IgV Fc (inert), 100 nM [4]: <LOD |
| A26E/E35D/M47L/V68M/A71G/D90G | 2211 | 50.4 fold | 2.86 fold | 1117 RLU | 21749 | 16.0 fold | 30232 | 693.4 fold | 13.7 |  |  |  |  |

Now from value to substance, other results behind:

| CD28 MFI at 33.3 nM ([5]; Table E20, 33.3 nM) | CD28 Fold change to WT CD80 ([5]; Table E20) | Fold Increase over WT CD80-IgV-Fe [6, 7] | Relative Luciferase Units (RLU), CD80 Conc 5.0 nM [6, 8] | CTLA4 MFI at 33.3 nM ([2]; Table E20, 33.3 nM) | CTLA4 Fold change to WT CD80 [2, 9] | PD-L1 MFI at 33.3 nM ([3]; Table E20, 33.3 nM) | PD-L1 Fold change to WT CD80 ([3]; Table E20) | Ratio of PDL1:CD28 [3, 10] | Substance | IL-2 release, K562/OKT3 (No PD-L1), CD80-IgV Fc (effector), 1 nM [4] | IL-2 release, K562/OKT3 (No PD-L1), CD80-IgV Fc (effector), 10 nM [4] | IL-2 release, K562/OKT3 (No PD-L1), CD80-IgV Fc (effector), 100 nM [4] | further results |
| --- | --- | --- | --- | --- | --- | --- | --- | --- | --- | --- | --- | --- | --- |
| 2102 | 47.9 fold | 2.34 fold | 912 RLU | 23286 | 17.1 fold | 26510 | 608.0 fold | 12.6 | A26E/E35D/V68M/A71G/D90G |  |  |  |  |
| 1379 | 31.4 fold | 2.37 fold | 925 RLU | 19736 | 14.5 fold | 12698 | 291.2 fold | 9.2 | H18Y/A26E/E35D/M47L/D90G |  |  |  |  |
